Data as given in patent US20050153894 (published 2005).
Each block holds one binder with its values, some of them ahead of it. Square brackets hold non-standard residues; d marks the D form. Ends that are not written are not given here.

What was measured:
cyclin D1 = cyclin D1 (human, UniProt P24385); experiment: competition
cyclin A = cyclin A (human, UniProt P20248); experiment: competition, immobilised p21 peptide
cyclin A, sequence (P20248 whole entry): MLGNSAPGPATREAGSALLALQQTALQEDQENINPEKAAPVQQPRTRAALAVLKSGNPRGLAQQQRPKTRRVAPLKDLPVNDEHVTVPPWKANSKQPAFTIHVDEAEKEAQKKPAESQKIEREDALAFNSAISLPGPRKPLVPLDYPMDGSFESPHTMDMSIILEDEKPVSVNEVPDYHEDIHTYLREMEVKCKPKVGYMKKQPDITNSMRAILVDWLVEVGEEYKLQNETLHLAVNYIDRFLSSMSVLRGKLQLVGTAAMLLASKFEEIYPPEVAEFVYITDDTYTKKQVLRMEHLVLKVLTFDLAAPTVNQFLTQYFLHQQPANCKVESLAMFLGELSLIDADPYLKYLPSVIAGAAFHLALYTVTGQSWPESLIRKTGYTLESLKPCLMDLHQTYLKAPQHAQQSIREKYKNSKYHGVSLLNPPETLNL

cyclin D1, sequence (P24385 whole entry): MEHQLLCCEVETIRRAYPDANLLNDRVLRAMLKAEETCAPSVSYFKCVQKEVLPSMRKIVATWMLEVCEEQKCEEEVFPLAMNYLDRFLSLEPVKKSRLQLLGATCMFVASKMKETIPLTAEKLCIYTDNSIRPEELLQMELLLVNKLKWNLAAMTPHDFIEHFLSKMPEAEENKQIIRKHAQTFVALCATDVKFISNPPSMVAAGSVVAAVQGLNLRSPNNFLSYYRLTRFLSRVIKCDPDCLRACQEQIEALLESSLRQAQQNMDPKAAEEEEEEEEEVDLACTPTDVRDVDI

B2: GST-pRb(772-928) (protein)
chain: ASTRPPTLSPIPHIPRSPYKFPSSPLRIPGGNIYISPLKSPYKISEGLPTPTKMTPRSRILVSIGESFGTSEKFQKINQMVCNSDRVLKRSAEGSNPPKPLKKLRFDIEGSDEADGSKHLPGESKFQQKLAEMTSTRTRMQKQKMNDSMDTSNKEEK
- IC50 (cyclin A): 9 µM

B4: p27 SAURNLFG (peptide)
chain: SA[code U]RNLFG
- IC50 (cyclin D1): > 200 µM

More lines, now with the values ahead:

- IC50 (cyclin D1): 134 µM
B1: p21 N-terminus KAURRLFG (peptide)
chain: KA[code U]RRLFG

- IC50 (cyclin D1): 20 µM
B3: KAURRLIF (peptide)
chain: KA[code U]RRLIF
